The DeepSol protein solubility set

Assay: soluble on expression in E. coli; label from the status in PepcDB or PDB records

Soluble on expression in E. coli, not soluble:
MGSDKIHHHHHHMLFFINLTLKRGLTTLLENANATINPGQKVGLVGKNGCGKSSLFALLKNEMSAEGGEMSFPPNWALAWVNQETPSLDCRAIDYVIQGDREYSRLQQVLQQANTANDGNAIAVLHNQLDAIDAWTIEARAGELLHGLGFTQAELEQPVKAFSGGWRMRLNLAQALICRSDLLLLDEPTNHLDLDAVIWLERWLKQYPGTLILISHDRDFLDPIVGKILHIEQQKLNEYTGDYSSFEQQRATKLAQQNAMYRQQQLKIDHLQRYIDRFKAKATKAKQAQSRIKALERMEKIAPAYVDNPFHFEFREPLSLPNPLLMMENASVGYGEGEKSAVEILSKIKLNLVPGSRIGLLGKNGAGKSTLIKLLAGEIAPTGGTIQLAKGVQLGYFVQHQLDTLRADESALWHLQKIAPQQTEQQLRDYLGGFAFHGDKVNQPVASFSGGEKARLVLALIVWQRPNLLLLDEPTNHLDFRYASGVNGSLGGLSGLFGVGVARSPFIA
MGSDKIHHHHHHMLKLCGFAASNYYNKVKLALLEKNVPFEEVLAWIGETDTTATPAGKVPYMITESGSLCESEVINEYLEAAYPQTPLLPRDPMQAGKVREIVTFLELYLELTARELYPEAFFGGKVSDNVKERQLKLLSRYVPAFAKLAKFSPYVAGDTFTLADCAAAVHLPLVSSCTKIIYGKDLLADLPVKEYLKTLSERPSVQKVNADRKANTELMLSRNK
MGSDKIHHHHHHMLLDYDVALEDDFQQFIKQIPAPVRALLDSADPVARHQRQAVYTLFGIPGRPATMTPLVEALAMVSTLDTPSFAPTPTINDLALSKAHAYASQYLLQQFIRTVSHTTMLPPANRHELLTAAQSLPLANLNRLRLNFNQRERIADFLKDTKDRPAKLTSLSGYLATSLAGLDPAICGLARAIGESVGIVLTILTDVQVTRQIADFRERLLMGNYPLPLLFGFENDPGYFYDFFHQAHKPTADQFVATQQRVLMIGVAPALTMANELVDQARLDSQQLPTDLKKRVEQALTRLAAATAQPH
MGSDKIHHHHHHMLLSRVAESLYWINRYLERAENISRFVEVSESMALDCPPGSAEPWLPLVDASGDRNKFDESYLNKTPSDVANFLIKDRENPNSILSCICMARENARQIRDVITSEMWEQINSLYWSIQEGEVIWHQPAQEQLFEIRRGCQLFYGVTDATFSHDIAWNFSKLGRLIERADKTSRILDVKYFLLLPNLKELGGALDELQWISLLRSAGAYQMFRISEQGSITPNAIASFLLLDPIFPRSVRFCLEGINESLSKIQNSPVSKKPNDLECLIGLLLSKWSFVRIDHLIKDGLHEAIDSLQIDLNKLHDLIHGIYFRNDKKFDFESLQG
MGSDKIHHHHHHMLMGSKDKVISILKEKGPISQTELSKLSGLSKSRLSEVLSELEKQGIVKRRKVLGKNLEVSLSQDRFLRLGIIRAAEYPFIIPFIKNLENRGYSVTVKIYENGIDLTRDLVEAKLDLGLSPIITQIIFSTIYRNIRIIGGGAKGGGGIIGKTCNRIASTVMSSMEIWAFSEFKNIEIIPSYSSYEMLDFLEKGIVDGIAIWEPFLSILERKGHKVHRFTPLHCCTLAVRETMDWERIKNIYEESFSWFKSSIDRWVSSYSNLLNIDYNILKEASKNYEFDYYLDLKEFKNSLKNTGIFIPI
MGSDKIHHHHHHMLNFSLTPNAKILSKDADSYPYMYRNYPFLRPWVDSLKQVNALKDTFIINPQGIQLHAFYITAPAPTSKTAVIVHGYTDNAIRMFMIGYLYNRDLGYNILLPDLQHQGESEGRAIQMGWKDRIDVLQWMNIANEIFGDSTQMVVHGISMGGATTMMVSGEKQQPYVKCFVEDCGYTSVWDEFSHELKSSFHLPAFPLMYTTSWLCEKKYGWNFKEASSLKQVEKCELPMLFIHGDKDTYVPTWMVYPLYEAKPEPKELWIVPGAAHALSYKENKQEYTDKVRDFVGRYIH
MGSDKIHHHHHHMLNSDLDIRLEPRIKELYRLHKERSANIDWSYHEFIPWDKAMSFKRVPWEESQVTLPEGVIVAVETALLTEVNLPWYTSHLDYTFKNSMEVINDFVRTWTAEEDQHSSLLETYLLVTRNVNPTRLHQLRRRVVESGWFPDFTNPLATMAYTSLQELATLVFYNNVARVAGAHDKDLATLLRRLAKDEALHYAFYRDTVKAHLELDPNFIVFFEDVIINFSMPGAIMPDFTERMKTIAIDTNYGPLQYFDQVLDVVVKYWDIENLQPTSEEAKQSQANIMKYHGRLKRIKDRQSAKNKIDA
MGSDKIHHHHHHMLNSLSIFEQAIRALPIDRSLTRQDLFIDGFLLQQEQELSVYYSPIGEYINRSAKIVFIGITPGFEQMRLAYEEAADAFHHGATIEETSKLVKYSASFAGPMRRNLTAMLDELELHRLLNIASTATLFHTNQELLHTTSILRHPVFYRDKNYTGHQPKIDRTPLLQHYAYEHFAAELNQLPDPVILVPFGRVVESTVRTLLHQGRIKKHTVLFGFPHPSGANGHRKRQFEENKDYLMKQLNSYFNT
MGSDKIHHHHHHMLPLDSLSDCASKSYLLTHLPDLNHRHLSSSVSTNSELIAAVQDGTLNATAMHLLTAETQSAGRGQHGRSWQSPRGNVYLSLYHPVHIPISGLLSLIIGVELAKMPIIQTLNDQLCAQGLTPIGVKWANDLGFYSYQYHHQSELHKILLANEMTPFHKLAGILIEPVTQAGKLVGIVMGVGLNVQATPKLTAQTCEGMSYQAISLQDIKQLLEPDKSASALLSLRELYQQMSKALMAAMTRFEHLGLEKPTGQTYNLDSFLKQFDSMDALAGLRLRITQEHNGQTETLTGYACGIDTHGCLQLRQDNGNISALFTGRIDVIDNA
MGSDKIHHHHHHMLSRQGEYKSWEITEAVLPVASNQEEAKNILTDTNVATITKFYGRYQDFMEMPAPAEKVAEYLNAHALWFSRCAEPMKVQLLGENGYALVIGRFGAFGYEVEPKIGLELLPPEEGIYRIRTIPIPDYQSPGYDVDYRASLQLIENDACSSGEVTRVEWELDLIVDLHFPRFIQRLPKSIIQSTGDRLLNQIVRQVSRRLTRKVQQDFQKSLEIPFSGNSKQKR
MGSDKIHHHHHHMLTHSTNPRGGVVHAMQLSEALTALGHAVTLHAPDPKGTGFFRSPACGAACFPVPPALADMTALVEQRIADYIGHFEQADNRDFDVFHAHDGISGNALATLKSRGLIPSFVRTIHHIDQFEDPRLMVLQDRSIQRADAFLAVSAAWQAILRDSYGVDAKVVGNGVDNRRFSPAWSGEQTALRDRIGLHAGAVFLSIGGIEARKNTLGILDAFRQLRAVKPDAQLVIAGGVSLLDHRDYQEEFQSHLRALRDDAAAVHIIGAVSDDDMPNLYRLADALVFPSLKEGFGLVVLEAMASGVPAIVPSIAPFIDYLSGDDALWCDPLHSASIAEAMALALVPEIRERIIPRGLEVASRFTWRRVAEAHLSTYATLKEAAHA
MGSDKIHHHHHHMLTSVFGISIKYEAWNHQDSLPVYIAGSYDFHTAYIGNRRCIMLAPTEELATLPALKKQIVKIQQIDNVPVVFELTTVSNYRRKSLIENNIPFITDKQVFLPFIGTMLSDEKEPQKLTGKFVYSTQQLFLFYLYSKKKRLYTSEAGKVLPFTAMTLTRAVKQLETTDLFLVAKDGVNKFIESKYKRDELFEKAKVYLTTPVRKTGYIDKTQVTENMVFAGETALSEKTMLNPSRVVTYAISEKDYDKSLLTDELIDPDKQVRLELWAYNPKQFSEDNSADDISLVLSFKDTNDERIEEAVDELQERRLHE
MGSDKIHHHHHHMLYFQNAFSLRGTHDAIIVGIFEGHEPLVAELKQLDETLNGHLSTLVKQKQLKTEAGKITELYTFGLIETKWVLAVGLGKRSDASADTLRAGFAAVGERVKEKRMTNVTVVLPSFVSERVSEQEVARLFGESFTMGYSTIDDYKERTNLVDKSLNSVTVFHGHRPVETGIREGIAYGNGSVYAERLMSIPRTLLSPTELVTEAQALANRHGFDTETLEQKELEKLGMGGLLAASGPAENATMIVLKNKGKREEREVIGLIGAGGNGIFSPWMGGAAAVLGAMDIIGSLHSQKNVLAILPIVEQEQGQPKPMPGDVIRSYSGKTIEVDHIEAVGALLLADGITYAKELGVHSLVTVAPLAEELRSILGDKFTAAVTNDESWLKKMQEASLKSGEPIWTLPYYRPYKKRLQEESVADLRLTIGRFANCMATALFVGEFAENDPWVHLDIAGTVARARGIMVRTLAAFVLNNGERELR
MGSDKIHHHHHHMMEEYLGVFVDETKEYLQNLNDTLLELEKNPEDMELINEAFRALHTLKGMAGTMGFSSMAKLCHTLENILDKARNSEIKITSDLLDKIFAGVDMITRMVDKIVSEGSDDIGENIDVFSDTIKSFASSGKEKPSEIKNETETKGEEEHKGESTSNEEVVVLPEEVAHVLQEARNKGFKTFYIKVILKEGTQLKSARIYLVFHKLEELKCEVVRTIPSVEEIEEEKFENEVELFVISPVDLEKLSEALSSIADIERVIIKEVTAVTEESGAEKRTEKEEKTEKTEEKAERKKVISQTVRVDIEKLDNLMDLMGELVIARSRILETLKKYNIKELDESLSHLSRITLDLQNVVMKIRMVPISFVFNRFPRMVRDLAKKMNKEVNFIMRGEDTELDRTFVEEIGEPLLHLLRNAIDHGIEPKEERIAKGKPPIGTLILSARHEGNNVVIEVEDDGRGIDKEKIIRKAIEKGLIDESKAATLSDQEILNFLFVPGFSTKEKVSEVSGRGVGMDVVKNVVESLNGSISIESEKDKGTKVTIRLPLTLAIIQALLVKVNNLVYAIPIANIDTILSISKEDIQRVQDRDVIVIRGEVIPVYRLWEVLQIEHKEELEEMEAVIVRVGNRKYGIVVDDLLGQDDIVIKSLGKVFSEVKEFSGAAILGDGSIALIINVSGIV
MGSDKIHHHHHHMMRKYSDKKNAQTQNYYKDRFYHAPHTVKSDVNESVFKEDFEVLKTQVEILNSFVELDFWVIEIKKEDNVKTLQMLKTLGYLSFTEASAIDFIADKNGFEVFYQLLNLEKKLRVRIKTFVGVKERLQSVAHVFKGANWSEREIYDMFGIFIINHPNLKRILMPDDWFGHPLLKTYPLKGDEFARWYEIDKIFGKEYREVVGEEQRDSGFADDKDTLNFARLYHEVPKGGQKKEISFKQEYQEDEGVAFVKKVKRDEAKILEKRR
MGSDKIHHHHHHMMSDASLPALTLPPALRRVLPAARWERVTEGESGAGVWRSTRFVVKVQSRTLYPASTLLQERERLRWFAGRLPVPQVVAYEDDGEQEYLAMTRLPGIAMSHPDAALHPERMVNLLARALRELHALPVRDCPFNMSLGVRLKLARERVAAGVVDESDFDEERQGQSAVQVFNQLARTRPAEEDLVVTHGDACLPNVIVQGEYVEGLIDLGRAGIADRHMDLALAWRSTRRNLGATYAGMLLDLYGRELVDEGKLAYYQLLDELF
MGSDKIHHHHHHMMTQVPDTPQALYRALPSMDSLLADAVLAPLLQRYGKAAVKAALDSQLRTARELIAQERRLPAWCANPSLLNGYLVDQLSKDYSHSLKPVWNLTGTILHTNLGRAQQSEAAIRAVTSVMRYPTPLEFELAAGERGHRDNAISGLIQRLTGAEACCVVNNNAAAVLLMLSAVAAGKEVIVSRGELVEIGGAFRIPDIMRQAGCTLVEVGSTNRTHLKDYEQAITENTAAIMKVHTSNYHISGFTAAVEEARLGQLCRERGILLISDLGSGSLTDLRRFGLKQEPTPQAMLADGVDLVSFSGDKLLGGPQSGLIVGKQALINKLQSHPLKRALRCDKLILAALEATLIHYLNPETLDKELPIMAKFARSQAELRQIGERLQQALAPLFTPSYGLELVECQTQVGSGSQPDTFLPSIGLCFNAQEGGSLTLLEQHFKQAQRPVIGRMTQDQLRLDLRGIDDEAELLAELSTLGVQL
MGSDKIHHHHHHMNALQFQKKLLSMQENMMNFALMLTANRDDAQDLMQDTTLKVLDNQEKFVDNINFKGWVLTVMRNIFINNYHKIVRTQTVVDQGVDLYNLDVVNDSGFDSPDGAYQIQEITKAINGLNNELKVPFSMFLSGYKYNEIADKLDVPLGTVKSRIFFARQELQKVLKDFRQG
